5 variants from publication PMC3948114 can be followed below.

B1: unnamed (parent)
chain 1: HMGGQDKPFLSAWPSAVVPRGGHVTLRCHYRHRFNNFMLYKEDRIHIPIFHGRIFQESFNMSPVTTAHAGNYTCRGSHPHSPTGWSAPSNPVVIMVTGNHRKPSLLAHPGPLVKSGERVILQCWSDIMFEHFFLHKEGISKDPSRLVGQIHDGVSKANFSIGPMMLALAGTYRCYGSVTHTPYQLSAPSDPLDIVVTGPYEKPSLSAQPGPKVQAGESVTLSCSSRSSYDMYHLSREGGAHERRLPAVRKVNRTFQADFPLGPATHGGTYRCFGSFRHSPYEWSDPSDPLLVSVTGNPSSSWPSPTEPSSKSGNPRHLHILIGTSVVIILFILLLFFLLHLWCSNKKNAAVMDQEPAGNRTANSEDSDEQDPEEVTYAQLDHCVFTQRKITRPSQRPKTPPTDTILYTELPNAKPRSKVVSCP
chain 2: not shown
chain 3: not shown
chain 4: TSTLQEQIDW

The test covers variants of B1. In words: tetramer staining of transfected HEK293 cells. Particulars: with partner chain of the complex shown; 0.2 μg tetramer; read off a plot.
For the variant chain 1 E282Q, the response (% of *001 TW10) is 130.

For the variant chain 1 E282A, the response (% of *001 TW10) was 26.

As for chain 1 A167G, the response (% of *001 TW10) was 10.

As for chain 1 L166A, the response (% of *001 TW10) stood at 90.

As for chain 1 L166V, the response (% of *001 TW10) came out at 46.
